B1: KCNAB2 (parent)
chain: SSIIHEIDSILGNKPYSKKDYRS

Variants of: B1
Assay: protein stability index of a GFP-peptide fusion (GPS, HEK-293T) (PSI 1-6); higher = more stable
Conditions: c terminus: native
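Further: lentivirally expressed fusions sorted by FACS into six bins by GFP to DsRed ratio, PSI derived from sequencing read proportions per bin multiplied by bin number.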

Protein stability index: each site, then its substitutions
S17: L 2.93; P 3.31; V 3.45
G12: M 3.77; R 2.73; P 3.86; S 3.51; D 3.81; F 4.21; T 3.24; Y 2.97; L 2.8; N 3.18; A 2.61; V 2.76; C 2.82; K 3.38; W 2.6; I 2.62; Q 3.16; E 3.69
Y21: I 2.47; N 3.64; D 4.07; T 2.35; L 2.37; P 5.12; E 3.37; R 1.77; W 3.28; A 3.77; Q 2.2; K 3.66; F 2.52; C 3.13; S 1.08; G 3.37; H 3.15; M 2.17; V 3.27
R22: Y 3.24; C 3.26; Q 4.29; S 4.01; T 4.28; N 4.55; I 3.67; G 3.98; L 4.01; K 4.37; W 2.57; M 3.29; H 4.39; V 3.12; F 3.18; P 4.29; A 4.01; D 4.42
E6: Y 1.69; R 2.26; S 2.66; P 2.9; N 3.65; Q 2.62; W 3.44; T 2.23; V 3.15
K14: V 2.94; P 3; L 2.77; S 3.49; G 2.69; H 2.32; N 3.22; D 3.31; I 2.63; F 1.99; E 3.24; Q 3.1; Y 2.32; W 1.7; M 2.9; A 2.62; T 2.89; C 2.55; R 3.09
D20: H 2.51; Q 2.04; P 4.21; G 3.07; T 3.55; C 2.01; E 2.89; L 2.63; S 2.78; Y 2.07; W 1.92; A 2.14; F 2.37; N 3.2; M 2.96; V 2.03; I 2.41; K 2.47
S23: K 4.33; Y 3.02; D 4.12; L 3.9; R 2.18; F 4.46; N 4.49; W 2.72; V 3.68; C 3.67; G 2.56; Q 3.6; A 3.37; I 3.74; T 4.17; P 3.8; E 4.19; M 3.96; H 4.09
Y16: T 3.78; K 2.48; W 2.19; A 2.85; M 2.71; F 3.41; I 3.8; H 3.27; C 3.55; V 3.26; N 3.34; S 3.02; P 3.6; L 3.22; D 3.65; G 3.59; R 2.22; E 4.12; Q 3.14
S9: V 2.53; F 1.75; N 2.94; A 2.48; T 3.41; G 3.66; I 2.08; Y 2.24; D 2.89; Q 3.19; E 3.66; M 2.2; W 2.9; H 2.8; L 2.38; R 2.58; P 3.81; K 3.54
